Experimental data reported in US20230391845A1, “GLP-1, GIP AND GLUCAGON RECEPTOR TRIPLE AGONISTS” (priority 2020, published 2023).
*1 amine or outer side, *2 acyl side, *3 side chain or, on linkers, in order; H or OH if unused. Where a SMILES comes first, the peptide text is derived from it. Where no end group is shown, it is not given here. Side-chain parts run from the residue outwards. [ ]: non-standard residue; d: D form. The star is where a group is joined. C20 diacid = O=C(O)CCCCCCCCCCCCCCCCCCC(=O)*; γGlu = O=C(O)[C@H](CCC(=O)[*:2])N[*:1]; εLys = N[C@@H](CCCCN[*:1])C(=O)[*:2]; Palmitoyl = CCCCCCCCCCCCCCCC(=O)*; Aib = CC(C)(N)C(=O)O

T1: human GIP receptor (Homo sapiens, UniProt P48546)
T1 construct: expressed in transfected cells; host or cells: BHK cells (parent line BHKTS13) containing CRE luciferase
T1 sequence (P48546 22-466): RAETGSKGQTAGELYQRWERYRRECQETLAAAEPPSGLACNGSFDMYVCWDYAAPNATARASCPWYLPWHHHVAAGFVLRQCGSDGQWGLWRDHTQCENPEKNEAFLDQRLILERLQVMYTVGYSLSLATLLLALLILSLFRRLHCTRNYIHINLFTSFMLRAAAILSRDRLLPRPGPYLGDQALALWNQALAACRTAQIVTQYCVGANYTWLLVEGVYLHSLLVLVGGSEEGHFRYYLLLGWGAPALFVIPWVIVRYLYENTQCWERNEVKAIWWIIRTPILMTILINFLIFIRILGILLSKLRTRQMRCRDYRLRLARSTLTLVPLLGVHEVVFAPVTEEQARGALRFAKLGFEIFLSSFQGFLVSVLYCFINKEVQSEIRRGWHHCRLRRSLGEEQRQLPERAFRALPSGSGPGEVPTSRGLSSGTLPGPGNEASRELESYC

T2: human glucose-dependent insulinotropic polypeptide receptor (human, UniProt P48546 22-466)
T2 sequence (looked up): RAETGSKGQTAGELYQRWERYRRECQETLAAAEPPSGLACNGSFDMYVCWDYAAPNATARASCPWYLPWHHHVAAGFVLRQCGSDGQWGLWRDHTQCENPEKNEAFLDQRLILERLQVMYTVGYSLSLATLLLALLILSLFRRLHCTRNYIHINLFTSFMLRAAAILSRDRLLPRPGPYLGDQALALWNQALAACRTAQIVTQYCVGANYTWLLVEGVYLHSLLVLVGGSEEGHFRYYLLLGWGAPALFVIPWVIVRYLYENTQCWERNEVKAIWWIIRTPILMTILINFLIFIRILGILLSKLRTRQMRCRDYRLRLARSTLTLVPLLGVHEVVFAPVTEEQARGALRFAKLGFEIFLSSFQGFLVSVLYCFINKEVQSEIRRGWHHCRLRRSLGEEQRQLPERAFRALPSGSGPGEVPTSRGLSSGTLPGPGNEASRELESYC


Experiments:
human GIP receptor = target: T1, human GIP receptor; assay: In vitro functional potency (CRE luciferase; whole cells), human GIPR; format: cell-based; conditions: BHK CRE luc2P hGIPR whole cells; Table 2; read-out: hGIPR CRE Luc EC50
[1] = Pharmacokinetic study in minipigs, i.v. administration; design: species or system Göttingen minipigs; conditions: female, Göttingen, minipig, in vivo, iv
Procedure, shortened: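 Terminal half-life, reported as harmonic mean, came from non-compartmental fits of plasma levels measured by antibody assay or LCMS over up to 14 days. Dosing was i.v., typically 1.5-2 nmol/kg, through implanted caval catheters in fasted female Göttingen minipigs of 16-35 kg.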

human GLP-1 receptor = target: T3, human GLP-1 receptor (Homo sapiens, UniProt P43220); assay: In vitro functional potency (CRE luciferase; whole cells), human GLP-1R; format: cell-based; conditions: BHK CRE luc2P hGLP-1R whole cells; Table 2; read-out: hGLP-1R CRE Luc EC50
T3 construct: expressed in transfected cells; host or cells: BHK cells (parent line BHKTS13) containing CRE luciferase
Procedure: The purpose of this example is to test the functional activity, or potency, of the compounds in vitro at the human and mouse GLP-1, GIP, and Gcg receptors. The in vitro functional potency is the measure of target receptor activation in a whole cell assay.
In vitro functional potency was determined by measuring the response of the target receptor in a reporter gene assay in individual cell lines. The assay was performed in stably transfected BHK cell lines that expresses one of the following G-protein coupled receptors: human GLP-1 receptor, human GIP receptor, human Gcg receptor, mouse GLP-1 receptor, mouse GIP receptor, or mouse Gcg receptor; and where each cell line contains the DNA for the cAMP response element (CRE) coupled to a promoter and the gene for firefly luciferase (CRE luciferase). When the respective receptor is activated, it results in the production of cAMP, which in turn results in expression of the luciferase protein. When assay incubation is completed, luciferase substrate (luciferin) is added resulting in the enzymatic conversion of luciferin to oxyluciferin and producing bioluminescence. The luminescence is measured as the readout for the assay.
The cells lines used in these assays were BHK cells with BHKTS13 as a parent cell line. The cell lines were derived from a clone containing the CRE luciferase element and were established by further transfection with the respective receptor to obtain the relevant cell line.
The cells were cultured at 37° C. with 5% CO2 in Cell Culture Medium. They were aliquoted and stored in liquid nitrogen. The cells were kept in continuous culture and were seeded out the day before each assay.
GLP-1R and GcgR Cell Culture Medium consisted of DMEM medium with 10% FBS, 500 µg/mL G418, and 300 µg/mL hygromycin. GIPR Cell Culture Medium consisted of DMEM medium with 10% FBS, 400 µg/mL G418, and 300 µg/mL hygromycin. Assay Buffer consisted of DMEM w/o phenol red, 10 mM Hepes, 1× Glutamax, 1% ovalbumin, and 0.1% Pluronic F-68.
• 1) Cells were plated at 5000 cells/well and incubated overnight in the assay plate. • 2) Cells were washed once in DPBS. • 3) Stocks of the test compounds and reference compounds in concentrations ranging from 100-300 pM were diluted 1:150 in Assay Buffer.
The data from the microtiter plate reader was first regressed in an Excel in order to calculate the x-axis, log scale concentrations based on the individual test compound's stock concentration and the dilutions of the assay. […] The software performs a non-linear regression (log(agonist) vs response). A minimum of two replicates was measured for each sample. The reported values are averages of the replicates.

[2] = target: human glucagon-like peptide 1 receptor (human, UniProt P43220 24-463); assay: cell-based or functional assay
[3] = target: T2, human glucose-dependent insulinotropic …; assay: cell-based or functional assay
human glucagon receptor = human glucagon receptor (human, UniProt P47871 26-477); assay: cell-based or functional assay
Sequence of human glucagon receptor (P47871 26-477): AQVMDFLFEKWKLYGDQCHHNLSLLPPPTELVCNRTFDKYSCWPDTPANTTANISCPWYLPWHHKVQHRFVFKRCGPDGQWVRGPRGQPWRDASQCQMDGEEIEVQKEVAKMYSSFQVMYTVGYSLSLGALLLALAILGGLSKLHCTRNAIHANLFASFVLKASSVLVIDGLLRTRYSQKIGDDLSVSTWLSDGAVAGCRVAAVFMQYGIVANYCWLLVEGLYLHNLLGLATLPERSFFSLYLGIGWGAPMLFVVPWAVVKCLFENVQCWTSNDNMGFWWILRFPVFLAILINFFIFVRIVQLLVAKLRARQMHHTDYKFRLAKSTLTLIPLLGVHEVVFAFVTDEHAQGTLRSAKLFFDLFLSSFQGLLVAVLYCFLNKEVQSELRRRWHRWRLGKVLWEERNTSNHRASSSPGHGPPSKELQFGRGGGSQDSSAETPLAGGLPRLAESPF

T3 sequence (P43220 24-463): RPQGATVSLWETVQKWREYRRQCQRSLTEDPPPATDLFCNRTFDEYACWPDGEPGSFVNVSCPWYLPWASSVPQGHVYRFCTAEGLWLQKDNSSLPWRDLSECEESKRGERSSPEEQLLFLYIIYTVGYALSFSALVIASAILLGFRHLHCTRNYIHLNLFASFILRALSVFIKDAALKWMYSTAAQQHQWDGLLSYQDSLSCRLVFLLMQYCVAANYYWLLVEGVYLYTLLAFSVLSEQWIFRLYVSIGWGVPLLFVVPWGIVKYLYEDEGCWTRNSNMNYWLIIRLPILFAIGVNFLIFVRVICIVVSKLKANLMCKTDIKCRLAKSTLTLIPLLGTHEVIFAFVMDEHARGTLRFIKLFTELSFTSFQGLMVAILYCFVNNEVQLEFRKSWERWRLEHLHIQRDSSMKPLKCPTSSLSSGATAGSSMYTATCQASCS

| Molecule | EC50 (human GIP receptor) [pM] | half-life [1] [h] | EC50 (human GLP-1 receptor) [pM] | hGLP-1R CRE Luc EC50 (pM) [2] [pM] | hGIPR CRE Luc EC50 (pM) [3] [pM] | hGcgR CRE Luc EC50 (pM) (human glucagon receptor) |
| --- | --- | --- | --- | --- | --- | --- |
| CC[C@H](C)[C@H](NC(=O)[C@H](CO)NC(=O)[C@H](Cc1ccc(O)cc1)NC(=O)[C@H](CC(=O)O)NC(=O)[C@H](CO)NC(=O)[C@@H](NC(=O)[C@H](Cc1ccccc1)NC(=O)[C@@H](NC(=O)CNC(=O)[C@H](Cc1c[nH]cn1)NC(=O)C(C)(C)NC(=O)[C@@H](N)Cc1c[nH]cn1)[C@@H](C)O)[C@@H](C)O)C(=O)N[C@@H](Cc1ccc(O)cc1)C(=O)N[C@@H](CC(C)C)C(=O)N[C@@H](CCC(=O)O)C(=O)N[C@@H](CCCCNC(=O)[C@@H](N)CCCCNC(=O)[C@@H](N)CCCCNC(=O)CC[C@H](NC(=O)CCCCCCCCCCCCCCCCCCC(=O)O)C(=O)O)C(=O)N[C@@H](CCC(N)=O)C(=O)N[C@@H](Cc1ccc(O)cc1)C(=O)N[C@@H](C)C(=O)NC(C)(C)C(=O)N[C@@H](CCC(=O)O)C(=O)N[C@@H](Cc1ccccc1)C(=O)N[C@H](C(=O)N[C@@H](CCC(N)=O)C(=O)N[C@@H](Cc1c[nH]c2ccccc12)C(=O)N[C@@H](CC(C)C)C(=O)N[C@@H](CC(C)C)C(=O)N[C@@H](CCC(=O)O)C(=O)NCC(=O)NCC(=O)N1CCC[C@H]1C(=O)N[C@@H](CO)C(=O)N[C@@H](CO)C(=O)NCC(=O)N[C@@H](C)C(=O)N1CCC[C@H]1C(=O)N1CCC[C@H]1C(=O)N1CCC[C@H]1C(=O)N[C@@H](CO)C(N)=O)C(C)C [Compound No. 24] (H-H[Aib]HGTFTSDYSIYLEK([εLys-εLys-γGlu-C20 diacid])QYA[Aib]EFVQWLLEGGPSSGAPPPS-NH2) | 7.7 | 82 | – | – | – | – |
| CC[C@H](C)[C@H](NC(=O)[C@H](CO)NC(=O)[C@H](Cc1ccc(O)cc1)NC(=O)[C@H](CC(=O)O)NC(=O)[C@H](CO)NC(=O)[C@@H](NC(=O)[C@H](Cc1ccccc1)NC(=O)[C@@H](NC(=O)CNC(=O)[C@H](Cc1c[nH]cn1)NC(=O)C(C)(C)NC(=O)[C@@H](N)Cc1c[nH]cn1)[C@@H](C)O)[C@@H](C)O)C(=O)N[C@@H](CC(C)C)C(=O)N[C@@H](CC(C)C)C(=O)N[C@@H](CCC(=O)O)C(=O)N[C@@H](CCCCNC(=O)[C@@H](N)CCCCNC(=O)[C@@H](N)CCCCNC(=O)CC[C@H](NC(=O)CCCCCCCCCCCCCCCCCCC(=O)O)C(=O)O)C(=O)N[C@@H](CCCCN)C(=O)N[C@@H](Cc1ccc(O)cc1)C(=O)N[C@@H](C)C(=O)NC(C)(C)C(=O)N[C@@H](CCC(=O)O)C(=O)N[C@@H](Cc1ccccc1)C(=O)N[C@H](C(=O)N[C@@H](CCC(N)=O)C(=O)N[C@@H](Cc1c[nH]c2ccccc12)C(=O)N[C@@H](CC(C)C)C(=O)N[C@@H](CC(C)C)C(=O)N[C@@H](CCC(=O)O)C(=O)NCC(=O)NCC(=O)N1CCC[C@H]1C(=O)N[C@@H](CO)C(=O)N[C@@H](CO)C(=O)NCC(=O)N[C@@H](C)C(=O)N1CCC[C@H]1C(=O)N1CCC[C@H]1C(=O)N1CCC[C@H]1C(=O)N[C@@H](CO)C(N)=O)C(C)C [Compound No. 41] (H-H[Aib]HGTFTSDYSILLEK([εLys-εLys-γGlu-C20 diacid])KYA[Aib]EFVQWLLEGGPSSGAPPPS-NH2) | 9.3 | 69 | 4.3 | – | – | – |
| CC[C@H](C)[C@H](NC(=O)[C@H](CO)NC(=O)[C@H](Cc1ccc(O)cc1)NC(=O)[C@H](CC(=O)O)NC(=O)[C@H](CO)NC(=O)[C@@H](NC(=O)[C@H](Cc1ccccc1)NC(=O)[C@@H](NC(=O)CNC(=O)[C@H](Cc1c[nH]cn1)NC(=O)C(C)(C)NC(=O)[C@@H](N)Cc1c[nH]cn1)[C@@H](C)O)[C@@H](C)O)C(=O)N[C@@H](Cc1ccc(O)cc1)C(=O)N[C@@H](CC(C)C)C(=O)N[C@@H](CCC(=O)O)C(=O)N[C@@H](CCCCNC(=O)[C@@H](N)CCCCNC(=O)[C@@H](N)CCCCNC(=O)CC[C@H](NC(=O)CCCCCCCCCCCCCCCCCCC(=O)O)C(=O)O)C(=O)N[C@@H](CCC(N)=O)C(=O)N[C@@H](C)C(=O)N[C@@H](C)C(=O)NC(C)(C)C(=O)N[C@@H](CCC(=O)O)C(=O)N[C@@H](Cc1ccccc1)C(=O)N[C@H](C(=O)N[C@@H](CCC(N)=O)C(=O)N[C@@H](Cc1c[nH]c2ccccc12)C(=O)N[C@@H](CC(C)C)C(=O)N[C@@H](CC(C)C)C(=O)N[C@@H](CCC(=O)O)C(=O)NCC(=O)NCC(=O)N1CCC[C@H]1C(=O)N[C@@H](CO)C(=O)N[C@@H](CO)C(=O)NCC(=O)N[C@@H](C)C(=O)N1CCC[C@H]1C(=O)N1CCC[C@H]1C(=O)N1CCC[C@H]1C(=O)N[C@@H](CO)C(N)=O)C(C)C [Compound No. 22] (H-H[Aib]HGTFTSDYSIYLEK([εLys-εLys-γGlu-C20 diacid])QAA[Aib]EFVQWLLEGGPSSGAPPPS-NH2; N-terminus assumed) | 7.1 | – | 2 | – | – | – |
| Y[Aib]QGTFTSDYSIYKDKQAA[Aib]EFVNWLLAGGPSSGAPPPS-NH2 (not fully specified (residue 14)) [Compound No. 63] | – | – | – | 25 | 175 | 1110 |
| Y[Aib]QGTFTSDYSIYLDKQAA[Aib]EFVKWLLAGGPSSGAPPPS-NH2 (not fully specified (residue 24)) [Compound No. 64] | – | – | – | 45.4 | 174 | 464 |
| Y[Aib]QGTFTSDYSIYLDKQAA[Aib]EFVNWLLAKGPSSGAPPPS-NH2 (not fully specified (residue 29)) [Compound No. 65] | – | – | – | 132 | 56 | 1350 |
| Y[Aib]QGTFTSDYSIYLDKQAA[Aib]EFVNWLLAGGPSSGKPPPS-NH2 (not fully specified (residue 35)) [Compound No. 66] | – | – | – | 12 | 26 | 1020 |
| Y[Aib]QGTFTSDYSIYLDKQAA[Aib]EFVNWLLAGGPSSGAPPPSK(Palmitoyl)-NH2 (N-terminus assumed; SMILES CCCCCCCCCCCCCCCC(=O)NCCCC[C@H](NC(=O)[C@H](CO)NC(=O)[C@@H]1CCCN1C(=O)[C@@H]1CCCN1C(=O)[C@@H]1CCCN1C(=O)[C@H](C)NC(=O)CNC(=O)[C@H](CO)NC(=O)[C@H](CO)NC(=O)[C@@H]1CCCN1C(=O)CNC(=O)CNC(=O)[C@H](C)NC(=O)[C@H](CC(C)C)NC(=O)[C@H](CC(C)C)NC(=O)[C@H](Cc1c[nH]c2ccccc12)NC(=O)[C@H](CC(N)=O)NC(=O)[C@@H](NC(=O)[C@H](Cc1ccccc1)NC(=O)[C@H](CCC(=O)O)NC(=O)C(C)(C)NC(=O)[C@H](C)NC(=O)[C@H](C)NC(=O)[C@H](CCC(N)=O)NC(=O)[C@H](CCCCN)NC(=O)[C@H](CC(=O)O)NC(=O)[C@H](CC(C)C)NC(=O)[C@H](Cc1ccc(O)cc1)NC(=O)[C@@H](NC(=O)[C@H](CO)NC(=O)[C@H](Cc1ccc(O)cc1)NC(=O)[C@H](CC(=O)O)NC(=O)[C@H](CO)NC(=O)[C@@H](NC(=O)[C@H](Cc1ccccc1)NC(=O)[C@@H](NC(=O)CNC(=O)[C@H](CCC(N)=O)NC(=O)C(C)(C)NC(=O)[C@@H](N)Cc1ccc(O)cc1)[C@@H](C)O)[C@@H](C)O)[C@@H](C)CC)C(C)C)C(N)=O) [Compound No. 58] | – | – | – | 4.1 | 7.2 | 21.2 |
| Y[Aib]QGTFTSDYSIYLDKQAAKEFVNWLLAGGPSSGAPPPS-NH2 (not fully specified (residue 20); printed as Y-Aib-QGTFTSDYSIYLDKQAA-K[2-[2-[2-[[2-[2-[2-[[(4S)-4-carboxy-4-(17-carboxyheptadecanoylamino)butanoyl]amino]ethoxy]ethoxy]acetyl]amino]ethoxy]ethoxy]acetyl]-EFVNWLLAGGPSSGAPPPS-NH2) [Compound No. 60] | – | – | – | 14.9 | 416 | 182 |
| Y[Aib]QGTFTSDYSIKLDKQAA[Aib]EFVNWLLAGGPSSGAPPPS-NH2 (not fully specified (residue 13)) [Compound No. 62] | – | – | – | 36 | 65 | 891 |
| Y[Aib]QGTFTSDYSIYLDKQAA[Aib]EFVNWLLAGGPSSGAPPPSK-NH2 (not fully specified (residue 40)) [Compound No. 59] | – | – | – | 11.7 | 44.5 | 703 |
